Reference: the DeepSol protein solubility set

Test: soluble on expression in E. coli; label from the status in PepcDB or PDB records

| Sequence | soluble on expression in E. coli |
| --- | --- |
| MSKAFVDGLLQSSKVVVFSKSYCPYCHKARAALESVNVKPDALQWIEIDERKDCNEIQDYLGSLTGARSVPRVFINGKFFGGGDDTAAGAKNGKLAALLKETGAL | not soluble |
| MSKKFFLSLGLVALLFSNSQAIDENLIKAAQAEGRVNSLAMPDTWANWKDTWADLKNLYDIEHSDTDMSSAQEIAKFKTEKKNASGDIGDVGASFGEIAVKQGVAQPFKTSYWDQIPTWAKDKDGNWLLAYTGTIAFIVNKDVVKDIPKTWQDLLKGNYKITVGDVSVAAQAVSAVLAANYALGGDEKDLSPALAFFNTLAKQGRLVNNDVSIANLEKGEVEVGLVWDFNGLGYRDKVGKDRYEVLIPADGSVISGYTTIINKYAKHPNAAKLAREFILSDKGQINLAKGYARPIRIDHITLPDDIKAKLLPSEQYKNARAIKDQKAWEKSAKELPQLWQEKVIVDMK | not soluble |
| MSKKVAIVGAGPGGLATAIRLAGLGYQVEIFEAAERVGGRMRGFEVDSYAFDTGPTILQLPHLYKELFEEAGLNFADYVQLKRLEPYTRLKFWDGTQLDITSDLQSFKTQLATLRSDLPLAFDRWYSEHIRKYELGYKPYLAGPARSIFGYLRPDELMKFLSFRPWENLYQHFWRFFQDERLVYALSYPSKYLGMHPTVASSVFSLIPFLEFSQGVWHPVGGFRALAQGLANAAQDLGVKIHLHSPVHQIWIEQGQVRGLELADASRHQFDTVVINADFAYAVRHLLPTSARGRYTDNKLGQMQFSCSTFMLYLGINRRYEDLPHHQIYLSDNIRRLERPWVDDSALDETDPPFYVCNPTIIDPSNAPAGHSTLFVLVPIPNTSYAVDWDIKQKSYTDFILKRLHLLGYHNIEQHIVTQSCYTAQSWLDDYRVHLGAVFNLSHNLTQLGPFRPPIRSENIAGLYWIGGAVHPGSGLLTILEASRSAAGFIHQDFASTGSLEHHHHHH | not soluble |
| MSKLEELDIVSNNILILKKFYTNDEWKNKLDSLIDRIIKAKKIFIFGVGRSGYIGRCFAMRLMHLGFKSYFVGETTTPSYEKDDLLILISGSGRTESVLTVAKKAKNINNNIIAIVCECGNVVEFADLTIPLEVKKSKYLPMGTTFEETALIFLDLVIAEIMKRLNLDESEIIKRHCNLL | soluble |
| MSKLGKQDVYYFEGLDDILIAMMTTKDAVGTEPAFGEVVRLPIATKLGIKGNGTALEKWASSKMFRRVSRETKHEIALDHVGIPIAVMDEIKGLIAQSGVTFGKNTAREFPYFAFGFIGNIENGGKKAVWYPKTQLSNVIDEEYTTAEDETKIDDVTANFVSTGLTYNNVMYSSFDSNRDSASIELFEKFIAQPVYDEEQWKKLAGPSRGGGSE | not soluble |
| MSKLVGNLIPNTFFITKGSGESDLELHAGSYHMALFDAGISDFNIMTYSSVLPATAHLATMDEIDLPPFGSELKTIMAVSHGYQDEFVSAGVVYAWMYKDENFDEKAGGLVCEVSGRYRIEELESRLIRVINDLHQKTYSQYYLGELNFITEGITIEKRYGTALAGLCFMDFIQPEVQKK | not soluble |
| MSKRKVAIIGSGNIGTDLMIKILRHGQHLEMAVMVGIDPQSDGLARARRMGVATTHEGVIGLMNMPEFADIDIVFDATSAGAHVKNDAALREAKPDIRLIDLTPAAIGPYCVPVVNLEANVDQLNVNMVTCGGQATIPMVAAVSRVARVHYAEIIASIASKSAGPGTRANIDEFTETTSRAIEVVGGAAKGKAIIVLNPAEPPLMMRDTVYVLSDEASQDDIEASINEMAEAVQAYVPGYRLKQRVQFEVIPQDKPVNLPGVGQFSGLKTAVWLEVEGAAHYLPAYAGNLDIMTSSALATAEKMAQSLARKAGEAA | soluble |
| MSKRPVIESEKPAWHDEDDDNMVVAVPKKVKMTMRVELKRTTDEEHGELDSKEYVGRLQEAFRKRHGGTPKWAKAAAGDEEEGSLLKTAAGYLAKDVNLPKTTIHTTLIKDFNIGHRYTRGITVVKFHKTRPVLIVADQGGNVQLFKVSREVKKDRFLQSANFSKFPIDSLEIADKGHSVICSSSRKEYLMQYNMETREVTQLKPPNTVPKQGIRLFAISHDSQFLAIAGHNSHIYVLHATSMEHITTISLPANASEIKFFPSHSREIWIICETGQIVIANIGLPGTKSSQHTFTDDGAVHGTTLAISQHGDYFATGSDTGIVNVYSGNDCRNSTNPRPLFNVSNLVTAVSSIAFNSDAQLMAICSNVKDNHLRLVHVASQTTFKNFPERNGKVTHARCVEFSPNGGYMAVGNDDGRLHVFEIHHFTDY | not soluble |
| MSKTAIIFPGQGAQKVGMAQDLFNNNDQATEILTSAANTLDFDILETMFTDEEGKLGETENTQPALLTHSSALLAALKNLNPDFTMGHSLGEYSSLVAADVLSFEDAVKIVRKRGQLMAQAFPTGVGSMAAVLGLDFDKVDEICKSLSSDDKIIEPANINCPGQIVVSGHKALIDELVEKGKSLGAKRVMPLAVSGPFHSSLMKVIEEDFSSYINQFEWRDAKFPVVQNVNAQGETDKEVIKSNMVKQLYSPVQFINSTEWLIDQGVDHFIEIGPGKVLSGLIKKINRDVKLTSIQTLEDVKGWNEND | not soluble |
| MSKTIIKNIGKIVSGDIKSPVLQADTIVVEDGLIAAIGGEELMKDAGDATIIDAAGSTVTPGLLDTHVHVSGGDYAPRQKTMDFISSALHGGVTTMISAGSPHFPGRPKDAAGTKALAITLSKSYYNARPAGVKVHGGAVILEKGLTEEDFIEMKKEGVWIVGEVGLGTIKNPEDAAPMVEWAHKHGFKVQMHTGGTSIPGSSTVTADDVIKTKPDVVSHINGGPTAISVQEVDRIMDETDFAMEIVQCGNPKIADYVARRAAEKGQLGRVIFGNDAPSGTGLIPLGILRNMCQIASMSDIDPEVAVCMATGNSTAVYGLNTGVIAPGKEADLIIMDTPLGSVAEDAMGAIAAGDIPGISVVLIDGEAVVTKSRNTPPAKRAAKIL | soluble |
| MSKTYHFIGIKGSGMSALALMLHQMGHNVQGSDVDKYYFTQRGLEQAGVTILPFSPNNISEDLEIIAGNAFRPDNNEELAYVIEKGYQFKRYHEFLGDFMRQFTSLGVAGAHGKTSTTGLLAHVLKNITDTSFLIGDGTGRGSANANYFVFEADEYERHFMPYHPEYSIITNIDFDHPDYFTGLEDVFNAFNDYAKQVQKGLFIYGEDPKLHEITSEAPIYYYGFEDSNDFIAKDITRTVNGSDFKVFYNQEEIGQFHVPAYGKHNILNATAVIANLYIMGIDMALVAEHLKTFSGVKRRFTEKIIDDTVIIDDFAHHPTEIIATLDAARQKYPSKEIVAIFQPHTFTRTIALLDEFAHALSQADSVYLAQIYGSAREVDNGEVKVEDLAAKIVKHSDLVTVENVSPLLNHDNAVYVFMGAGDIQLYERSFEELLANLTKNTQ | not soluble |
